The source of these data is publication PMC3164469 (Molecular Biology of the Cell, 2011).

By stoichiometry N is commonly meant the number of molecules, sites or subunits per partner or assembly.

The chains are these.
T1: SMT3–Hairless NTCT fusion protein (residues 232–358) (Drosophila melanogaster, UniProt Q02308 232-358)
T1 sequence: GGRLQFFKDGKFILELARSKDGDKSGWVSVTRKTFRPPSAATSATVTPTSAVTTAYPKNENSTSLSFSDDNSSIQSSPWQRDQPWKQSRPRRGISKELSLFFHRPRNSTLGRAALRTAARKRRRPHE

B1: core Su(H) (amino acids 98–523) (domain or fragment)
chain: not shown

The target of assay [1] is T1, SMT3–Hairless NTCT fusion protein …. The assay is described as follows: ITC.
Assay [2] has as its target B1. The experiment in a line: native gel or EMSA.

On to B1, for which, in assay [1], the “stoichiometry N” value worked out at 0.9.
With GGRLQFFKDGKFILELARSKDGDKSGWVSVTRKTFRPP (domain or fragment) [Hairless NT (amino acids 232–269)], the binding result in assay [2] is “binds”.
